We go through one variant from IntAct's records for PubMed 21850687.

First the molecules themselves.
B1: Thioredoxin-dependent peroxide reductase, mitochondrial (Homo sapiens), P30048 (parent)
chain: MAAAVGRLLRASVARHVSAIPWGISATAALRPAACGRTSLTNLLCSGSSQAKLFSTSSSCHAPAVTQHAPYFKGTAVVNGEFKDLSLDDFKGKYLVLFFYPLDFTFVCPTEIVAFSDKANEFHDVNCEVVAVSVDSHFSHLAWINTPRKNGGLGHMNIALLSDLTKQISRDYGVLLEGSGLALRGLFIIDPNGVIKHLSVNDLPVGRSVEETLRLVKAFQYVETHGEVCPANWTPDSPTIKPSPAASKEYFQKVNQ

The variants in this assay derive from B1. The following applies: with lrrk2_human LRRK2, Q5S007.
lrrk2_human LRRK2, Q5S007, sequence (Q5S007 whole entry): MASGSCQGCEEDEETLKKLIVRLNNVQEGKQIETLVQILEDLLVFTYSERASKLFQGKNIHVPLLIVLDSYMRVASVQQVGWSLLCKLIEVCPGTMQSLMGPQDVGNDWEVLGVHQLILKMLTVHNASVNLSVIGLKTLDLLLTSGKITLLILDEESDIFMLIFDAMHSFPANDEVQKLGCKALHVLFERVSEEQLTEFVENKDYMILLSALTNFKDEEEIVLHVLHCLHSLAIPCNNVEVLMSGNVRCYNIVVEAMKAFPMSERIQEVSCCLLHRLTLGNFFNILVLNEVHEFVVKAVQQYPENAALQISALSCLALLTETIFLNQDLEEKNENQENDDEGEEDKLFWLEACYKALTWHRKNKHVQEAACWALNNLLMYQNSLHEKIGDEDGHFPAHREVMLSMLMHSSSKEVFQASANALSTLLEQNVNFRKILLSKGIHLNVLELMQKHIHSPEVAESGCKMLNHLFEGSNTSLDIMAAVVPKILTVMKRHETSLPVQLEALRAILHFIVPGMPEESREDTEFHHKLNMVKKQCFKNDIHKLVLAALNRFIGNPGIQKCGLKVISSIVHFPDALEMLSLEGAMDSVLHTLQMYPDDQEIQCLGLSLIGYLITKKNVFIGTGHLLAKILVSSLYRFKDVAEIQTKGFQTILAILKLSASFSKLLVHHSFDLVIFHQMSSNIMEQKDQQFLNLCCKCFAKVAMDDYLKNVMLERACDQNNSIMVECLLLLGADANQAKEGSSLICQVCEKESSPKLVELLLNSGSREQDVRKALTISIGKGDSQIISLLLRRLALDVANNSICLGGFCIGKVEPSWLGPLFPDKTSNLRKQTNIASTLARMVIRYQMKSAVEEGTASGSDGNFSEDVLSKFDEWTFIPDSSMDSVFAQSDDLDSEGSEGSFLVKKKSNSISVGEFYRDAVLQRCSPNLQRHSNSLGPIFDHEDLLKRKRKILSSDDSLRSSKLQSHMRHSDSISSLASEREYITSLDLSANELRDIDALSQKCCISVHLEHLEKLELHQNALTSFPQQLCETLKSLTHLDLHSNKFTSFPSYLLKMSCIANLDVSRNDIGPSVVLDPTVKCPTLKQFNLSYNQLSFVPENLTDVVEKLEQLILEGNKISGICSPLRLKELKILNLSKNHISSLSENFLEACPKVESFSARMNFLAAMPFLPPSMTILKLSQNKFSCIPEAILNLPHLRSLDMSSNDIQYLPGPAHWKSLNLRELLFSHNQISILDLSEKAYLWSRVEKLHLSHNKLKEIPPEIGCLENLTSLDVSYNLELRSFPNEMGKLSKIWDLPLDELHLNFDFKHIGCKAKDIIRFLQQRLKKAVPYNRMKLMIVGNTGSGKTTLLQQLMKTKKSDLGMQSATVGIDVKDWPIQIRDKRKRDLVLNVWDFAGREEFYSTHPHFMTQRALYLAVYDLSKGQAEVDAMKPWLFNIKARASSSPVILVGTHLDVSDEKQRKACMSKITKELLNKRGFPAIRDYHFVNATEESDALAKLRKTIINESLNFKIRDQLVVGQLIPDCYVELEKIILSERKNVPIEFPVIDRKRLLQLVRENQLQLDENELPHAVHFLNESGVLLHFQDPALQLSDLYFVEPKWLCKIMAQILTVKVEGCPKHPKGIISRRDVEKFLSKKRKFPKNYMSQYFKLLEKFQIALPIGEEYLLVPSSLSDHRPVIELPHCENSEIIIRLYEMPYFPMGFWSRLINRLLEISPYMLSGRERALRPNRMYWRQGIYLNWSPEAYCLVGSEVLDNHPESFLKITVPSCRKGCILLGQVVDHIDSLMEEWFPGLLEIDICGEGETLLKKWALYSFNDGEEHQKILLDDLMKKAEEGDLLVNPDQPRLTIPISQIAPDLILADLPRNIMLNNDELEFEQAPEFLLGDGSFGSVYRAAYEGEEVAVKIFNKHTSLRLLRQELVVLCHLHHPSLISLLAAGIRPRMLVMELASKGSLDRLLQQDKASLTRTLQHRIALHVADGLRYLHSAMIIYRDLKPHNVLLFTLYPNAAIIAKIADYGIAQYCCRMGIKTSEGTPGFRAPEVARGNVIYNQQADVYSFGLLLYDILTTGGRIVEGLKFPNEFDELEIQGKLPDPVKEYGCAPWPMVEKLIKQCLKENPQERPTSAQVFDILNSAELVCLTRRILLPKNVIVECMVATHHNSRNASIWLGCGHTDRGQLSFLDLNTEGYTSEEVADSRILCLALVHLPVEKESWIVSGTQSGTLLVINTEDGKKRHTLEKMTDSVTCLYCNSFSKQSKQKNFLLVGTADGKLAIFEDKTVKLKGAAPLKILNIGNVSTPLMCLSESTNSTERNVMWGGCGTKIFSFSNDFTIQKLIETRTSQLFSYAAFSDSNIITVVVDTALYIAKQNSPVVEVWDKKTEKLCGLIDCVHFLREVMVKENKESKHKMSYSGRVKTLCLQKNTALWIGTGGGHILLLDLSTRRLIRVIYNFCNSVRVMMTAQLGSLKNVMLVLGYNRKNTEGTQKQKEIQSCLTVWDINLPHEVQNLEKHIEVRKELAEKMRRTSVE
Turning to MAAAVGRLLRASVARHVSAIPWGISATAALRPAACGRTSLTNLLCSGSSQAKLFSTSSSCHAPAVTQHAPYFKGTAVVNGEFKDLSLDDFKGKYLVLFFYPLDFTFVCPTEIVAFSDKANEFHDVNCEVVAVSVDSHFSHLAWINAPRKNGGLGHMNIALLSDLTKQISRDYGVLLEGSGLALRGLFIIDPNGVIKHLSVNDLPVGRSVEETLRLVKAFQYVETHGEVCPANWTPDSPTIKPSPAASKEYFQKVNQ [T146A], the “effect of a mutation on the interaction” value is “disrupting interaction”.
